This is an account of results in publication PMC9135631 (2022).

As a reminder, the Kd is a measure of binding affinity in units of concentration. The low end stands for tighter binding, the high end for weaker binding.

This assay deals with 8xHis-tagged Teneurin-2 extracellular domain (Ten2^ECD-His) (UniProt Q9NT68 401-2774, HA/Flag epitopes left out; isoform assumed; signal peptide removed and GPS autoproteolysis expected).

B1: Latrophilin-3 ADHD-related variant R465S (Lphn3^R465S) (receptor)
chain: MWPSQLLIFMMLLAPIIHAFSRAPIPMAVVRRELSCESYPIELRCPGTDVIMIESANYGRTDDKICDSDPAQMENIRCYLPDAYKIMSQRCNNRTQCAVVAGPDVFPDPCPGTYKYLEVQYECVPYKVEQKVFLCPGLLKGVYQSEHLFESDHQSGAWCKDPLQASDKIYYMPWTPYRTDTLTEYSSKDDFIAGRPTTTYKLPHRVDGTGFVVYDGALFFNKERTRNIVKFDLRTRIKSGEAIIANANYHDTSPYRWGGKSDIDLAVDENGLWVIYATEQNNGKIVISQLNPYTLRIEGTWDTAYDKRSASNAFMICGILYVVKSVYEDDDNEATGNKIDYIYNTDQSKDSLVDVPFPNSYQYIAAVDYNPRDNLLYVWNNYHVVKYSLDFGPLDSRSGQAHHGQVSYISPPIHLDSELERPSVKDISTTGPLGMGSTTTSTTLRTTTLSPGRSTTPSVSGRRNSSTSTPSPAVEVLDDMTTHLPSASSQIPALEESCEAVEAREIMWFKTRQGQIAKQPCPAGTIGVSTYLCLAPDGIWDPQGPDLSNCSSPWVNHITQKLKSGETAANIARELAEQTRNHLNAGDITYSVRAMDQLVGLLDVQLRNLTPGGKDSAARSLNKLQKRERSCRAYVQAMVETVNNLLQPQALNAWRDLTTSDQLRAATMLLHTVEESAFVLADNLLKTDIVRENTDNIKLEVARLSTEGNLEDLKFPENMGHGSTIQLSANTLKQNGRNGEIRVAFVLYNNLGPYLSTENASMKLGTEALSTNHSVIVNSPVITAAINKEFSNKVYLADPVVFTVKHIKQSEENFNPNCSFWSYSKRTMTGYWSTQGCRLLTTNKTHTTCSCNHLTNFAVLMAHVEVKHSDAVHDLLLDVITWVGILLSLVCLLICIFTFCFFRGLQSDRNTIHKNLCISLFVAELLFLIGINRTDQPIACAVFAALLHFFFLAAFTWMFLEGVQLYIMLVEVFESEHSRRKYFYLVGYGMPALIVAVSAAVDYRSYGTDKVCWLRLDTYFIWSFIGPATLIIMLNVIFLGIALYKMFHHTAILKPESGCLDNINYEDNRPFIKSWVIGAIALLCLLGLTWAFGLMYINESTVIMAYLFTIFNSLQGMFIFIFHCVLQKKVRKEYGKCLRTHCCSGKSTESSIGSGKTSGSRTPGRYSTGSQSRIRRMWNDTVRKQSESSFITGDINSSASLNREPYRETSMGVKLNIAYQIGASEQCQGYKCHGYSTTEW
B1: the dissociation constant (Kd) stood at 1.06 nM.

B2: Latrophilin-3 ADHD-related variant D615N (Lphn3^D615N) (receptor)
chain: MWPSQLLIFMMLLAPIIHAFSRAPIPMAVVRRELSCESYPIELRCPGTDVIMIESANYGRTDDKICDSDPAQMENIRCYLPDAYKIMSQRCNNRTQCAVVAGPDVFPDPCPGTYKYLEVQYECVPYKVEQKVFLCPGLLKGVYQSEHLFESDHQSGAWCKDPLQASDKIYYMPWTPYRTDTLTEYSSKDDFIAGRPTTTYKLPHRVDGTGFVVYDGALFFNKERTRNIVKFDLRTRIKSGEAIIANANYHDTSPYRWGGKSDIDLAVDENGLWVIYATEQNNGKIVISQLNPYTLRIEGTWDTAYDKRSASNAFMICGILYVVKSVYEDDDNEATGNKIDYIYNTDQSKDSLVDVPFPNSYQYIAAVDYNPRDNLLYVWNNYHVVKYSLDFGPLDSRSGQAHHGQVSYISPPIHLDSELERPSVKDISTTGPLGMGSTTTSTTLRTTTLSPGRSTTPSVSGRRNRSTSTPSPAVEVLDDMTTHLPSASSQIPALEESCEAVEAREIMWFKTRQGQIAKQPCPAGTIGVSTYLCLAPDGIWDPQGPDLSNCSSPWVNHITQKLKSGETAANIARELAEQTRNHLNAGDITYSVRAMDQLVGLLDVQLRNLTPGGKNSAARSLNKLQKRERSCRAYVQAMVETVNNLLQPQALNAWRDLTTSDQLRAATMLLHTVEESAFVLADNLLKTDIVRENTDNIKLEVARLSTEGNLEDLKFPENMGHGSTIQLSANTLKQNGRNGEIRVAFVLYNNLGPYLSTENASMKLGTEALSTNHSVIVNSPVITAAINKEFSNKVYLADPVVFTVKHIKQSEENFNPNCSFWSYSKRTMTGYWSTQGCRLLTTNKTHTTCSCNHLTNFAVLMAHVEVKHSDAVHDLLLDVITWVGILLSLVCLLICIFTFCFFRGLQSDRNTIHKNLCISLFVAELLFLIGINRTDQPIACAVFAALLHFFFLAAFTWMFLEGVQLYIMLVEVFESEHSRRKYFYLVGYGMPALIVAVSAAVDYRSYGTDKVCWLRLDTYFIWSFIGPATLIIMLNVIFLGIALYKMFHHTAILKPESGCLDNINYEDNRPFIKSWVIGAIALLCLLGLTWAFGLMYINESTVIMAYLFTIFNSLQGMFIFIFHCVLQKKVRKEYGKCLRTHCCSGKSTESSIGSGKTSGSRTPGRYSTGSQSRIRRMWNDTVRKQSESSFITGDINSSASLNREPYRETSMGVKLNIAYQIGASEQCQGYKCHGYSTTEW
As to B2, the Kd came out at 0.896 nM.

B3: Latrophilin-3 ADHD-related variant T783M (Lphn3^T783M) (receptor)
chain: MWPSQLLIFMMLLAPIIHAFSRAPIPMAVVRRELSCESYPIELRCPGTDVIMIESANYGRTDDKICDSDPAQMENIRCYLPDAYKIMSQRCNNRTQCAVVAGPDVFPDPCPGTYKYLEVQYECVPYKVEQKVFLCPGLLKGVYQSEHLFESDHQSGAWCKDPLQASDKIYYMPWTPYRTDTLTEYSSKDDFIAGRPTTTYKLPHRVDGTGFVVYDGALFFNKERTRNIVKFDLRTRIKSGEAIIANANYHDTSPYRWGGKSDIDLAVDENGLWVIYATEQNNGKIVISQLNPYTLRIEGTWDTAYDKRSASNAFMICGILYVVKSVYEDDDNEATGNKIDYIYNTDQSKDSLVDVPFPNSYQYIAAVDYNPRDNLLYVWNNYHVVKYSLDFGPLDSRSGQAHHGQVSYISPPIHLDSELERPSVKDISTTGPLGMGSTTTSTTLRTTTLSPGRSTTPSVSGRRNRSTSTPSPAVEVLDDMTTHLPSASSQIPALEESCEAVEAREIMWFKTRQGQIAKQPCPAGTIGVSTYLCLAPDGIWDPQGPDLSNCSSPWVNHITQKLKSGETAANIARELAEQTRNHLNAGDITYSVRAMDQLVGLLDVQLRNLTPGGKDSAARSLNKLQKRERSCRAYVQAMVETVNNLLQPQALNAWRDLTTSDQLRAATMLLHTVEESAFVLADNLLKTDIVRENTDNIKLEVARLSTEGNLEDLKFPENMGHGSTIQLSANTLKQNGRNGEIRVAFVLYNNLGPYLSTENASMKLGTEALSTNHSVIVNSPVIMAAINKEFSNKVYLADPVVFTVKHIKQSEENFNPNCSFWSYSKRTMTGYWSTQGCRLLTTNKTHTTCSCNHLTNFAVLMAHVEVKHSDAVHDLLLDVITWVGILLSLVCLLICIFTFCFFRGLQSDRNTIHKNLCISLFVAELLFLIGINRTDQPIACAVFAALLHFFFLAAFTWMFLEGVQLYIMLVEVFESEHSRRKYFYLVGYGMPALIVAVSAAVDYRSYGTDKVCWLRLDTYFIWSFIGPATLIIMLNVIFLGIALYKMFHHTAILKPESGCLDNINYEDNRPFIKSWVIGAIALLCLLGLTWAFGLMYINESTVIMAYLFTIFNSLQGMFIFIFHCVLQKKVRKEYGKCLRTHCCSGKSTESSIGSGKTSGSRTPGRYSTGSQSRIRRMWNDTVRKQSESSFITGDINSSASLNREPYRETSMGVKLNIAYQIGASEQCQGYKCHGYSTTEW
On to B3, for which binding was characterised by a dissociation constant (Kd) of 0.756 nM.

B4: Latrophilin-3 ADHD-related variant A247S (Lphn3^A247S) (receptor)
chain: MWPSQLLIFMMLLAPIIHAFSRAPIPMAVVRRELSCESYPIELRCPGTDVIMIESANYGRTDDKICDSDPAQMENIRCYLPDAYKIMSQRCNNRTQCAVVAGPDVFPDPCPGTYKYLEVQYECVPYKVEQKVFLCPGLLKGVYQSEHLFESDHQSGAWCKDPLQASDKIYYMPWTPYRTDTLTEYSSKDDFIAGRPTTTYKLPHRVDGTGFVVYDGALFFNKERTRNIVKFDLRTRIKSGEAIIANSNYHDTSPYRWGGKSDIDLAVDENGLWVIYATEQNNGKIVISQLNPYTLRIEGTWDTAYDKRSASNAFMICGILYVVKSVYEDDDNEATGNKIDYIYNTDQSKDSLVDVPFPNSYQYIAAVDYNPRDNLLYVWNNYHVVKYSLDFGPLDSRSGQAHHGQVSYISPPIHLDSELERPSVKDISTTGPLGMGSTTTSTTLRTTTLSPGRSTTPSVSGRRNRSTSTPSPAVEVLDDMTTHLPSASSQIPALEESCEAVEAREIMWFKTRQGQIAKQPCPAGTIGVSTYLCLAPDGIWDPQGPDLSNCSSPWVNHITQKLKSGETAANIARELAEQTRNHLNAGDITYSVRAMDQLVGLLDVQLRNLTPGGKDSAARSLNKLQKRERSCRAYVQAMVETVNNLLQPQALNAWRDLTTSDQLRAATMLLHTVEESAFVLADNLLKTDIVRENTDNIKLEVARLSTEGNLEDLKFPENMGHGSTIQLSANTLKQNGRNGEIRVAFVLYNNLGPYLSTENASMKLGTEALSTNHSVIVNSPVITAAINKEFSNKVYLADPVVFTVKHIKQSEENFNPNCSFWSYSKRTMTGYWSTQGCRLLTTNKTHTTCSCNHLTNFAVLMAHVEVKHSDAVHDLLLDVITWVGILLSLVCLLICIFTFCFFRGLQSDRNTIHKNLCISLFVAELLFLIGINRTDQPIACAVFAALLHFFFLAAFTWMFLEGVQLYIMLVEVFESEHSRRKYFYLVGYGMPALIVAVSAAVDYRSYGTDKVCWLRLDTYFIWSFIGPATLIIMLNVIFLGIALYKMFHHTAILKPESGCLDNINYEDNRPFIKSWVIGAIALLCLLGLTWAFGLMYINESTVIMAYLFTIFNSLQGMFIFIFHCVLQKKVRKEYGKCLRTHCCSGKSTESSIGSGKTSGSRTPGRYSTGSQSRIRRMWNDTVRKQSESSFITGDINSSASLNREPYRETSMGVKLNIAYQIGASEQCQGYKCHGYSTTEW
The molecule B4 showed a dissociation constant Kd of 1.15 nM.
